{"source": "paper PMC2628593", "about": "(Molecular cell, 2008)", "proteins": {"B1": {"name": "Skap55 (Src-kinase-associated phosphoprotein of 55 kDa) (natural protein, UniProt Q86WV1 1-359, looked up)", "chain": "MQAAALPEEIRWLLEDAEEFLAEGLRNENLSAVARDHRDHILRGFQQIKARYYWDFQPQGGDIGQDSSDDNHSGTLGLSLTSDAPFLSDYQDEGMEDIVKGAQELDNVIKQGYLEKKSKDHSFFGSEWQKRWCVVSRGLFYYYANEKSKQPKGTFLIKGYGVRMAPHLRRDSKKESCFELTSQDRRSYEFTATSPAEARDWVDQISFLLKDLSSLTIPYEEDEEEEEKEETYDDIDGFDSPSCGSQCRPTILPGSVGIKEPTEEKEEEDIYEVLPDEEHDLEEDESGTRRKGVDYASYYQGLWDCHGDQPDELSFQRGDLIRILSKEYNMYGWWVGELNSLVGIVPKEYLTTAFEVEER"}}, "target": "the molecule itself", "experiment": "SEC + other: dynamic light scattering"}
{"protein": "B1", "values": [{"measurement": "stoichiometry N", "result": 2}]}
